Earlier results, collected in article PMC4705221.
Read-outs that look alike come from different tables or passages of the source.

Legend:
MK2 (Homo sapiens) [1] = target: MK2 (Homo sapiens) (UniProt P49137)
MK2 (Homo sapiens) [2] = target: MK2 (Homo sapiens) (UniProt P49137); remark: listed apart in the source

UniProt P49137, sequence (P49137 whole entry): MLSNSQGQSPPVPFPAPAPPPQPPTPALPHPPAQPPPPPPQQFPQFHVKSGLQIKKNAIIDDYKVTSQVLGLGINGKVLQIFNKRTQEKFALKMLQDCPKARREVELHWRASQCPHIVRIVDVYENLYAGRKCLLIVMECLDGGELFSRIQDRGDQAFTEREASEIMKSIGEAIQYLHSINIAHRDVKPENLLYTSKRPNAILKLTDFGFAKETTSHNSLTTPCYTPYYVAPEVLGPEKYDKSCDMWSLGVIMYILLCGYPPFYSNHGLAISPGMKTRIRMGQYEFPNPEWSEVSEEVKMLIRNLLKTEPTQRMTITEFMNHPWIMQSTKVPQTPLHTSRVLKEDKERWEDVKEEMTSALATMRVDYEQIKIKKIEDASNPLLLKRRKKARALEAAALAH

Kd (MK2 (Homo sapiens) [1]): 60 nM
Kd (MK2 (Homo sapiens) [2]): 2.5 nM
Substance: p38α (from UniProt Q16539)
